# Assay results taken from article PMC11063069.
# Biological target: His-tagged human CD47 protein (human) (UniProt Q08722)
# Experiment: pull-down
# UniProt Q08722, sequence (Q08722 19-139): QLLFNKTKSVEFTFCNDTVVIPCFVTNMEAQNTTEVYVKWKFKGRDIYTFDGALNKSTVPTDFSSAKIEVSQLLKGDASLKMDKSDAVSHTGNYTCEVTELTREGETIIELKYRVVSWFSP
substance,measurement,value
fibronectin-binding protein B (FnBP B) of S. aureus laboratory strain 8325-4 (from UniProt A0A0H2XKG3 37-940) (natural protein),percent of bacterial colonies precipitated in the pellets with recombinant hCD47,83.2%
